What all share (assay type): biochemical
One series concerns the target T1, bovine pancreas trypsin (Bos taurus, UniProt P00760).
T1 construct: purchased Washington Biochemicals; host or cells: bovine pancreas
T1 sequence (P00760 24-246): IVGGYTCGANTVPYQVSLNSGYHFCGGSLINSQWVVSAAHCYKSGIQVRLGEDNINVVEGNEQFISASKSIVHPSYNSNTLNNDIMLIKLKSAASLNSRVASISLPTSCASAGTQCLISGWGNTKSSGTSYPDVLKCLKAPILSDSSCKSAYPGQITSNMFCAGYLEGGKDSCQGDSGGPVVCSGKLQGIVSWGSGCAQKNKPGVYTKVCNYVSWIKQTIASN
The series can be described thus: Determination of Ki value against bovine pancreas trypsin (substrate Bz-DL-Arg-pNA). The conditions noted are these: 30° C., pH 8.0. The protocol: Furthermore, the Ki value against trypsin was determined as follows.
Firstly, buffer containing 20 μl of 10 mM CaCl2, 50 mM Tris-HCl (pH 8.0) was mixed with 10 μl of test sample (1.2~6 μM) and 10 μl of 4.2 μM bovine pancreas trypsin solution (prepared by dissolving bovine pancreas trypsin in 1 mM HCl; Washington Biochemicals), and incubated at 30° C. for three minutes. 110 μl of 1M Tris-HCl (pH 8.0) buffer containing 100 mM CaCl2 was added to this solution, then 350 μl of any of 0.6 mM, 1.2 mM and 2.3 mM Bz-DL-Arg-pNA.HCl (Nakaraitesk) solution (containing 10% DMSO) was added, and reacted at 30° C. Change on absorbance at 405 nm over time was recorded, and the initial reaction velocity of the enzyme was determined therefrom. Then, the Ki value against trypsin was determined according to a procedure which was similar to the procedure for human neutrophil elastase above.

Series [1] concerns the target T2, human neutrophil elastase (Homo sapiens, UniProt P08246).
T2 sequence (P08246 30-267): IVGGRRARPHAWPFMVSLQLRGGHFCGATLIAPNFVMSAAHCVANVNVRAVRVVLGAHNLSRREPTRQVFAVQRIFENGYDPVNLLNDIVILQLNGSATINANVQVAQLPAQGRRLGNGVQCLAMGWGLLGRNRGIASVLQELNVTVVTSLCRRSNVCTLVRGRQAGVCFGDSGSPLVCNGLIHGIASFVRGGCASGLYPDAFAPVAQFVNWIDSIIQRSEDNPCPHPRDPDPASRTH
Nature of the series: Determination of Ki value against human neutrophil elastase (fluorogenic substrate MeOSuc-Ala-Ala-Pro-Val-7AMC). Conditions: 30° C., pH 7.5, purified peptides with recovered activity, read-out: Inhibitory Activity against Human Neutrophil Elastase Ki. Here is the method: Determination of Ki value of the samples of purified peptides of Example 7 against human neutrophil elastase was accomplished as follows.
10 μl of solution of human neutrophil elastase (Attends Research), (the concentration of which was adjusted to 25 μM with the following buffer), and 10 μl of test sample (the concentration of which was appropriately adjusted) were added to buffer containing 30 μl of 100 mM Tris-HCl (pH 7.5), 500 mM NaCl, 0.01% BSA, and left for 20 minutes at 30° C. Then, 200 μl of MeOSuc-Ala-Ala-Pro-Val-7AMC solution (Cambridge Research Biochemicals) containing 1% dimethyl-sulfoxide (hereinafter referred to as "DMSO") was added to the mixture to adjust the concentration thereof to 0.2 mM, 0.3 mM and 0.4 mM, and reacted at 30° C. Fluorescence at 450 nm excited at 365 nm was measured over 0 to 3 minutes with a spectrophotofluorometer (F-3000, HITACHI), and an initial reaction velocity was calculated. Ki value was determined by preparing a graph having a vertical axis of the reciprocal of initial reaction velocity and a horizontal axis of sample concentration, and then plotting on the graph lines for each of the three substrate concentrations and reading the intersection point of the three lines so obtained.

In series [2] the target is T2, human neutrophil elastase. The series can be described thus: Resistance against oxidizer: inhibitory rate against human neutrophil elastase after treatment with chloro-succinate-imide. Conditions: for Inhibitory Rate against Human Neutrophil Elastase (%): amount of inhibitor 20 p mole. Here is the method: 5 μl of peptide sample, the concentration of which was adjusted appropriately, was mixed with 5 μl of 5 mM chloro-succinate-imide [prepared by dissolving chloro-succinate-imide (Nakaraitesk) in 100 mM Tris-HCl (pH 7.5) buffer containing 500 mM NaCl], then left for 10 minutes at room temperature, and then treated with the oxidizer. Then, 5 μl of human neutrophil elastase, concentration of which was adjusted with said buffer, and 35 μl of said buffer were further added thereto, and left for 15 minutes at 30° C. 450 μl of MeOSuc-Ala-Ala-Pro-Val-pNA (Cambridge Research Bio-Chemicals) solution (containing 1% DMSO), the concentration of which was adjusted to 0.1 mM with said buffer, was added thereto and further reacted for 30 minutes at 30° C. 40 μl of acetic acid was added and absorbance at 405 nm was measured. An inhibition against an activity of human neutrophil elastase in the samples treated with the oxidizer was indicated as an inhibitory rate (%) calculated by the following formula. [formula] A: Absorbance obtained from sample not containing inhibitor. B: Absorbance obtained from sample containing inhibitor.

The text below walks through data of US5541288A, “Peptide having elastase inhibitory activity and producing method thereof” (Nissin Shokuhin Kabushiki Kaisha, priority 1993, dated 1996).

Read-outs that look alike come from different tables or passages of the source.

In the case of “R15: Recombinant HI-8 peptide (C-terminal domain Thr78-Leu143 of UTI) expressed by using the plasmid pCD17R15”, the Ki was 360 nM with bovine pancreas trypsin, about 690 nM in series [1] (listed as HI-8) and 690 nM in series [1].

B1: Ulinastatin (protein, UniProt P02760 206-352, looked up)
Inter-alpha-trypsin inhibitor …: AVLPQEEEGSGGGQLVTEVTKKEDSCQLGYSAGPCMGMTSRYFYNGTSMACETFQYGGCMGNGNNFVTEKECLQTCRTVAACNLPIVRGPCRAFIQLWAFDAVKGKCVLFPYGGCQGNGNKFYSEKECREYCGVPGDGDEELLRFSN
modifications: Inter-alpha-trypsin inhibitor light chain
B1: the “Inhibitory Rate against Human Neutrophil Elastase (%)” value in series [2] (chloro-succinate-imide 0 mM) is 72%; in series [2] (chloro-succinate-imide 2.5 mM), 5%. The “inhibitory activity against human neutrophil elastase under oxidizing conditions (in words)” value in series [2] (treated with oxidizer chloro-succinate-imide) is “oxidized and inactivated completely”. The Ki is 920 nM in the series with bovine pancreas trypsin and 120 nM in series [1].

One may read the Ki as the equilibrium dissociation constant of an inhibitor or competing ligand from its target.
